Data as given in the supplement of paper PMC10065799, “High-throughput profiling of sequence recognition by tyrosine kinases and SH2 domains using bacterial peptide display” (eLife, 2023).

Experiments:
AncSZ = test: phosphorylation enrichment, bacterial display (enrichment ratio); higher = better substrate or ligand; peptides without Tyr show the background
EPHB1 = EPHB1 (UniProt P54762); test: as above
EPHB2 = EPHB2 (UniProt P29323); test: as above
FGFR1 = FGFR1 (UniProt P11362); test: as above
FGFR3 = FGFR3 (UniProt P22607); test: as above
Fer (mouse) = test: as above
Fes = Fes (UniProt P07332); test: as above
Sequence of Fes (P07332 whole entry, looked up): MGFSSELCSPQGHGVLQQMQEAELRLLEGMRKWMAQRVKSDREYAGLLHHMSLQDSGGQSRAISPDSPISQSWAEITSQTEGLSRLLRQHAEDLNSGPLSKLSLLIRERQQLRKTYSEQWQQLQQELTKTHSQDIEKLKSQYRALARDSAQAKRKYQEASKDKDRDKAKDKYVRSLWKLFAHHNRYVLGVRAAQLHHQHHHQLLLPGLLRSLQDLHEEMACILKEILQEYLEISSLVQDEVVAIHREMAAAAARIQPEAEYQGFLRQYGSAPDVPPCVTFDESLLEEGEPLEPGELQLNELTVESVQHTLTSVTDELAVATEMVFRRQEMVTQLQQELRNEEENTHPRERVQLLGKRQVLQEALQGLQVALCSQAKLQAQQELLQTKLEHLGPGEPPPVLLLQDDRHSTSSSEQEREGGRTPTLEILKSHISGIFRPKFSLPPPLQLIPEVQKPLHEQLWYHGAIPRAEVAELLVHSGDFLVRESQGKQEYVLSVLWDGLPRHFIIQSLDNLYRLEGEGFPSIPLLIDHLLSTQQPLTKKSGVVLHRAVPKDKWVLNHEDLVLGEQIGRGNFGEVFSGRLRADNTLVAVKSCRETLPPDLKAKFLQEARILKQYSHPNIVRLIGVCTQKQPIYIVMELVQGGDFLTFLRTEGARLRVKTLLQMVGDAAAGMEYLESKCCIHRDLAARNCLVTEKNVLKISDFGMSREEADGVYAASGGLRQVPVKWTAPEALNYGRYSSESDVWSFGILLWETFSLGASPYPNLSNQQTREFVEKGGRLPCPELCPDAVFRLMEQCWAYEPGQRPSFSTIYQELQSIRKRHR

Fyn = Fyn (UniProt P06241); test: as above
Sequence of Fyn (P06241 whole entry, looked up): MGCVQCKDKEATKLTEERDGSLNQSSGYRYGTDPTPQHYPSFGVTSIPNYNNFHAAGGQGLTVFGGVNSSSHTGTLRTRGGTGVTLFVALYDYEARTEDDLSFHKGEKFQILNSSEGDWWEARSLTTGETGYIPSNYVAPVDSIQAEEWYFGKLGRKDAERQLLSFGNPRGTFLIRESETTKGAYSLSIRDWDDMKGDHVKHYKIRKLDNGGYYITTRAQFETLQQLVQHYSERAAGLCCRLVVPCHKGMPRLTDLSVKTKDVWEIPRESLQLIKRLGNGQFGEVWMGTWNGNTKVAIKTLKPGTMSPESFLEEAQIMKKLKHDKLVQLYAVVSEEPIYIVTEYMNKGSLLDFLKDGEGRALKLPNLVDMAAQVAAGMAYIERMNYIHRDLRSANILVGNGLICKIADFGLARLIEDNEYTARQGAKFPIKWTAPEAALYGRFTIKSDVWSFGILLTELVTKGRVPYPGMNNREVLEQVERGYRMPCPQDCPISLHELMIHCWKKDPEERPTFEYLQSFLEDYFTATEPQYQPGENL

Hck = Hck (UniProt P08631); test: as above
Sequence of Hck (P08631 whole entry, looked up): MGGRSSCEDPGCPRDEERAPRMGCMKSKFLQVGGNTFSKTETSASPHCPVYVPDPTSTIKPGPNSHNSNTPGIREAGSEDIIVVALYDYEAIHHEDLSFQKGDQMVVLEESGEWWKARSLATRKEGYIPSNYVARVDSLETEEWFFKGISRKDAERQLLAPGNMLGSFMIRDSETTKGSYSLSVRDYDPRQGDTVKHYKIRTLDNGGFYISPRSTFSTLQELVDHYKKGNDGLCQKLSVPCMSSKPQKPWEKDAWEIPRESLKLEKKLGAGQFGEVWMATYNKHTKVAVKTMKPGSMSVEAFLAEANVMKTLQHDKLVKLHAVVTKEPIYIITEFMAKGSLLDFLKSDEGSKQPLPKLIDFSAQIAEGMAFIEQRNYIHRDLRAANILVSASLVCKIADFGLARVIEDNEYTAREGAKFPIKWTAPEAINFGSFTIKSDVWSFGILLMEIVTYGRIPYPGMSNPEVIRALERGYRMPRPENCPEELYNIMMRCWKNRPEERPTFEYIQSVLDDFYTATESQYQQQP

Jak2 = Jak2 (UniProt O60674); test: as above
Sequence of Jak2 (O60674 whole entry, looked up): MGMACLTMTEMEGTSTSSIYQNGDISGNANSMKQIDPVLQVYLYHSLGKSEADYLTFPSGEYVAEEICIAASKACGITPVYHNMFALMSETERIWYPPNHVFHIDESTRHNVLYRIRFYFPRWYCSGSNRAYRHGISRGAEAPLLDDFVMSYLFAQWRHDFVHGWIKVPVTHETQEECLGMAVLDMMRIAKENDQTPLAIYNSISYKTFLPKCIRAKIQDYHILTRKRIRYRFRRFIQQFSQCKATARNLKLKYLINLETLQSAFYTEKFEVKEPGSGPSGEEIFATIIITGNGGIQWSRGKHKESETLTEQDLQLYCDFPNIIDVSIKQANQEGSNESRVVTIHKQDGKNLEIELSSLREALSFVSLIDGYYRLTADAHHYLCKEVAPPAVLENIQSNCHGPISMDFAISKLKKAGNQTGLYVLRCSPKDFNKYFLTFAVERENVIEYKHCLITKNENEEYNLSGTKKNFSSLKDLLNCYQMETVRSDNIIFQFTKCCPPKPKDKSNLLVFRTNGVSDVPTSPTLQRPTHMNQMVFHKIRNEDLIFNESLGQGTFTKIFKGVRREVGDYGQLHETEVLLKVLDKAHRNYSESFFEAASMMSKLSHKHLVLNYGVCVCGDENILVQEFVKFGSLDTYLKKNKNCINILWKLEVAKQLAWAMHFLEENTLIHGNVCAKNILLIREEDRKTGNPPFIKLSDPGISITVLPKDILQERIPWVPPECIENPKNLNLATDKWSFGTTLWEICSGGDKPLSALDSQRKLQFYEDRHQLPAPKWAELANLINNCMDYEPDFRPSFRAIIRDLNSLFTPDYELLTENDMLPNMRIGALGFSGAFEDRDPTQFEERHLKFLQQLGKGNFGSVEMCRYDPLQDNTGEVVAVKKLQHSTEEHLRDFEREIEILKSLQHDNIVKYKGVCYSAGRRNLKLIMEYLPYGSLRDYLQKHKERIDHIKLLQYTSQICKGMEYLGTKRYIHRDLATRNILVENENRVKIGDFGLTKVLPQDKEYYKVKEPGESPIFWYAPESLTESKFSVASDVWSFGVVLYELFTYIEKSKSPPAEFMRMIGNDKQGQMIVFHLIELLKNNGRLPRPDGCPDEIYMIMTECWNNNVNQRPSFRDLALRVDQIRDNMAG

MERTK = MERTK (UniProt Q12866); test: as above
Sequence of MERTK (Q12866 whole entry, looked up): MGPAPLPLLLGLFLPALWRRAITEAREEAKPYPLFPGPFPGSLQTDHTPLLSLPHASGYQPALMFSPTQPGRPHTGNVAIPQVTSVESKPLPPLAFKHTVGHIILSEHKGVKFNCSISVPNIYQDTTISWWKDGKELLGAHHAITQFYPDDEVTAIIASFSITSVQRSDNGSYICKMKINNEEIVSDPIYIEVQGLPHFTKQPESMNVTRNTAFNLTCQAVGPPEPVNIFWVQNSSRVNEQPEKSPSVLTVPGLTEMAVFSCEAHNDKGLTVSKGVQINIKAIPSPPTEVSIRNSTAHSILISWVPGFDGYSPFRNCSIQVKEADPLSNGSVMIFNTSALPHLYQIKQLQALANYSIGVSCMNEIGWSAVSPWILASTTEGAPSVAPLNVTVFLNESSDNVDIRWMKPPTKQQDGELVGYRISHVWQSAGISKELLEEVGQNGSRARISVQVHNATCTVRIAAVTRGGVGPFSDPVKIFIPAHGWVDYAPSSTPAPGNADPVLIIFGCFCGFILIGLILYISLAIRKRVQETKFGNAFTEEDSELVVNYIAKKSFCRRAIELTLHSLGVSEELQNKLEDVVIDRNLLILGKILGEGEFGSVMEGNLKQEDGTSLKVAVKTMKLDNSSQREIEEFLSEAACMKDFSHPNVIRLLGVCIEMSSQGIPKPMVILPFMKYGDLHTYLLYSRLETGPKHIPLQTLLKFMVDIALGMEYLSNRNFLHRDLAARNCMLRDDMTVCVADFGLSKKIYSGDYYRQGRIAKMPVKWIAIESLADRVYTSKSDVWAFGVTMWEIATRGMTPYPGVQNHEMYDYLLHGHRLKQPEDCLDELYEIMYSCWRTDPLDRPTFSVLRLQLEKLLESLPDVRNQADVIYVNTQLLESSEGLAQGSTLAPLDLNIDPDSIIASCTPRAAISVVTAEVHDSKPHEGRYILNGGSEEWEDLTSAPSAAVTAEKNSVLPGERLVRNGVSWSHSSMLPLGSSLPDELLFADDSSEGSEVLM

c-Abl (mouse) = test: as above
c-Src = test: as above
Grb2 SH2 = Grb2 SH2 (UniProt P62993); test: SH2 binding enrichment of the phosphorylated peptide, bacterial display (enrichment ratio); higher = better substrate or ligand; peptides without Tyr show the background
SHP2-C SH2 = test: as above
c-Src SH2 = test: as above
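For SH2 binding enrichment of the phosphorylated peptide, bacterial display in this document: peptide library displayed on the E. coli surface as eCPX fusions, selected cells deep-sequenced, score is each peptide's frequency after selection divided by its frequency in the input.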
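For phosphorylation enrichment, bacterial display in this document: 11-residue human phosphosite peptides and single-mutation variants displayed on the E. coli surface, counted by deep sequencing, each peptide's frequency after selection divided by its frequency in the unselected input library; frequency after pTyr selection over input frequency; kinase dosed for 20-30% of maximal phosphorylation in three min.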

Sequence of EPHB2 (P29323 whole entry, looked up): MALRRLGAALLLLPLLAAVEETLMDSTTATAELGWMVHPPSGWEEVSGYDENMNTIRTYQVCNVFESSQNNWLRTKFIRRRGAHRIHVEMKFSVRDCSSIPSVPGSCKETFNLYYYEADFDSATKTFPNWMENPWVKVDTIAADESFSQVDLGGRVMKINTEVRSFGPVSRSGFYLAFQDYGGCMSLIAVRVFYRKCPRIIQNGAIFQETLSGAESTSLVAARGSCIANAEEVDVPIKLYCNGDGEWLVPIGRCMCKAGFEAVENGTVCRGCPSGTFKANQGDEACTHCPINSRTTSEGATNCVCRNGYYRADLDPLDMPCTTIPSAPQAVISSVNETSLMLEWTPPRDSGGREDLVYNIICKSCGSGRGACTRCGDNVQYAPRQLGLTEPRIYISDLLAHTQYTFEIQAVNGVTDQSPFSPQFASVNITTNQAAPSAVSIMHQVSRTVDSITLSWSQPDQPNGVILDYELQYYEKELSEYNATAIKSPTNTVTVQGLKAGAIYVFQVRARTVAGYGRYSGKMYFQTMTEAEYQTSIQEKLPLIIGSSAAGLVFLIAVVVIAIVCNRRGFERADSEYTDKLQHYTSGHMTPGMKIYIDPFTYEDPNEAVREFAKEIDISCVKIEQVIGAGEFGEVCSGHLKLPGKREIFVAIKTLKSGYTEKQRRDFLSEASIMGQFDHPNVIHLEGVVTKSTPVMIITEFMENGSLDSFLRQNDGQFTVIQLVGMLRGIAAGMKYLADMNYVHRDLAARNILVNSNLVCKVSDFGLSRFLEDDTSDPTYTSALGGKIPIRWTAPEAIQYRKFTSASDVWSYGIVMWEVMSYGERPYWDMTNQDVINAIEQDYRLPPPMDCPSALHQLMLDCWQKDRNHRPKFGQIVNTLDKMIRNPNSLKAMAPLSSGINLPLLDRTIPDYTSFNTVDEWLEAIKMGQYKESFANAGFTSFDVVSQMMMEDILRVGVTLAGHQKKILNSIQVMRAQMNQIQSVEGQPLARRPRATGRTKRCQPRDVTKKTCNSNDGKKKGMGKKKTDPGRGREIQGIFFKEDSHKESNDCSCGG

Row | SH2 binding enrichment (Grb2 SH2) | SH2 binding enrichment (SHP2-C SH2) | SH2 binding enrichment (c-Src SH2) | Sequence | phosphorylation enrichment (AncSZ) | phosphorylation enrichment (EPHB1) | phosphorylation enrichment (EPHB2) | phosphorylation enrichment (FGFR1) | phosphorylation enrichment (FGFR3) | phosphorylation enrichment (Fer (mouse)) | phosphorylation enrichment (Fes) | phosphorylation enrichment (Fyn) | phosphorylation enrichment (Hck) | phosphorylation enrichment (Jak2) | phosphorylation enrichment (MERTK) | phosphorylation enrichment (c-Abl (mouse)) | phosphorylation enrichment (c-Src)
1 | 0.897 | 0.583 | 0.537 | GSERDYTFEEL [EIF2S2_Y174_YF] | 1.14 | 0.571 | 0.598 | 0.602 | 0.749 | 0.499 | 1.27 | 0.453 | 0.505 | 1.07 | 0.479 | 0.738 | 0.566
2 | 0.88 | 0.542 | 1.13 | IAAEYYDNLPH [DEGS1_Y284] | 1.75 | 0.797 | 0.813 | 7.81 | 5.34 | 0.874 | 1.02 | 0.613 | 2.42 | 0.98 | 0.917 | 0.808 | 0.782
3 | 0.729 | 0.362 | 0.428 | ILTYKYLQKPM [KIT_Y547] | 0.666 | 0.686 | 0.591 | 0.396 | 0.518 | 0.495 | 1.15 | 0.41 | 0.458 | 0.801 | 0.487 | 0.654 | 0.521
4 | 0.71 | 0.663 | 0.518 | PLDGGYFTLQI [TP53_Y327_E326G] | 1.79 | 1.2 | 0.776 | 1.67 | 1.59 | 0.766 | 1.75 | 0.726 | 0.679 | 5.04 | 0.5 | 1.09 | 1.37
5 | 0.989 | 0.54 | 0.358 | VTRAKYFIRDE [GNAS_Y339] | 0.654 | 0.356 | 0.405 | 0.45 | 0.432 | 0.325 | 0.694 | 0.404 | 0.409 | 0.622 | 0.405 | 0.458 | 0.375
6 | 0.791 | 0.734 | 0.413 | QAPPIYLDVLG [NTRK1_Y791_V790I] | 1.31 | 13.6 | 3.26 | 3.35 | 2.38 | 3.26 | 0.952 | 1.46 | 2.11 | 1.21 | 3.35 | 0.878 | 1.71
7 | 0.934 | 0.974 | 0.751 | CEHRGCLFLAI [TEK_Y897_Y897C_YF] | 1.02 | 0.554 | 0.468 | 0.455 | 0.624 | 0.421 | 1.13 | 0.334 | 0.38 | 0.797 | 0.298 | 0.601 | 0.282
8 | 7.6 | 1.78 | 1.88 | TSSAVYMNLAS [GATAD2B_Y317_I316V] | 0.759 | 1.67 | 0.65 | 1.31 | 1.09 | 0.818 | 0.83 | 3.21 | 4.17 | 0.776 | 3.69 | 0.755 | 3.04
9 | 0.821 | 0.81 | 0.755 | GFAGKYIAMVM [CYP19A1_Y441_C437Y_YF] | 0.694 | 0.41 | 0.823 | 0.454 | 0.49 | 0.539 | 0.858 | 0.453 | 0.556 | 0.594 | 0.525 | 0.473 | 0.599
10 | 1.41 | 0.748 | 0.44 | LARDIYKNDFF [ROS1_Y2110_YF] | 2.31 | 0.962 | 0.933 | 0.68 | 0.592 | 1.14 | 2.15 | 1.47 | 0.599 | 2.38 | 1.57 | 1.31 | 2.29
11 | 1.72 | 1.67 | 1.38 | SVNIRYLLFPS [SERAC1_Y548] | 1.08 | 0.714 | 0.634 | 0.574 | 0.929 | 0.469 | 1.36 | 0.47 | 0.558 | 1.25 | 0.46 | 0.817 | 0.463

Further lines, the sequence ahead of its results:

Row | Sequence | SH2 binding enrichment (Grb2 SH2) | SH2 binding enrichment (SHP2-C SH2) | SH2 binding enrichment (c-Src SH2) | phosphorylation enrichment (AncSZ) | phosphorylation enrichment (EPHB1) | phosphorylation enrichment (EPHB2) | phosphorylation enrichment (FGFR1) | phosphorylation enrichment (FGFR3) | phosphorylation enrichment (Fer (mouse)) | phosphorylation enrichment (Fes) | phosphorylation enrichment (Fyn) | phosphorylation enrichment (Hck) | phosphorylation enrichment (Jak2) | phosphorylation enrichment (MERTK) | phosphorylation enrichment (c-Abl (mouse)) | phosphorylation enrichment (c-Src)
12 | RIGRKYKRVRF [F8_Y442_K444R] | 0.554 | 0.533 | 0.302 | 2.77 | 0.967 | 1.65 | 1.13 | 1.55 | 1.45 | 3.31 | 1.35 | 1.23 | 2.55 | 2.74 | 2.59 | 3.73
13 | QYPDVYAREEV [CRX_Y67] | 1.05 | 0.812 | 0.49 | 3.78 | 1.57 | 1.82 | 0.959 | 1.66 | 1.93 | 4.98 | 1.66 | 2.18 | 5.06 | 1.8 | 3.34 | 3.8
14 | CEETFYTMKMN [MASP2_Y401_V405M] | 0.771 | 0.657 | 0.575 | 1.99 | 0.939 | 0.894 | 0.666 | 1.11 | 0.935 | 1.87 | 1.59 | 1.09 | 1.83 | 0.829 | 1.3 | 2.6
15 | LLANAYIFVVQ [L1CAM_Y418_YF] | 1.31 | 0.605 | 0.396 | 1.46 | 0.757 | 1.13 | 1 | 1.18 | 0.793 | 2.13 | 0.606 | 0.569 | 1.79 | 0.482 | 1.44 | 0.538
16 | TEALFYTDDPA [ADPRS_Y75_T79P_YF] | 0.636 | 0.397 | 0.626 | 1.62 | 1.05 | 0.894 | 0.734 | 1.3 | 0.863 | 1.82 | 0.645 | 0.76 | 1.65 | 0.699 | 1.25 | 0.797
17 | DDKQPYEKKAA [HMGB1_Y144] | 0.964 | 0.741 | 0.606 | 0.988 | 0.585 | 0.464 | 0.493 | 0.629 | 0.475 | 0.947 | 0.518 | 0.536 | 0.851 | 0.415 | 0.539 | 0.436
18 | CTTIHYNYMCH [TP53_Y234_N239H] | 1.26 | 2.4 | 3.68 | 0.751 | 0.724 | 0.761 | 0.514 | 0.706 | 0.597 | 0.855 | 0.449 | 0.49 | 0.672 | 0.407 | 0.581 | 0.506
19 | AVVEPYNSLLT [TUBA1A_Y185_I188L] | 0.786 | 0.648 | 1.31 | 0.888 | 0.574 | 0.618 | 0.399 | 0.54 | 0.394 | 0.891 | 0.426 | 0.427 | 1.19 | 0.454 | 0.579 | 0.463
20 | IGLHAYGDQFR [IDH1_Y135_R132L_YF] | 0.703 | 0.449 | 0.419 | 0.687 | 0.413 | 0.491 | 0.423 | 0.594 | 0.51 | 0.799 | 0.502 | 0.473 | 0.519 | 0.4 | 0.51 | 0.39
21 | AAQNCYKVTNA [TPI1_Y105_G110A] | 1.15 | 0.639 | 0.608 | 0.522 | 0.355 | 0.455 | 0.367 | 0.46 | 0.354 | 0.639 | 0.454 | 0.36 | 0.552 | 0.62 | 0.466 | 0.44
22 | ATHRGYDLDNP [MMUT_Y146_S148L] | 0.721 | 0.654 | 0.384 | 0.64 | 0.459 | 0.434 | 0.409 | 0.727 | 0.413 | 0.79 | 0.392 | 0.411 | 0.698 | 0.343 | 0.614 | 0.377
23 | RQRTAYFSLNT [CDH1_Y68_D72N] | 0.901 | 14.9 | 0.871 | 0.794 | 0.661 | 0.68 | 0.586 | 0.745 | 0.552 | 1.1 | 0.699 | 0.423 | 1.34 | 0.566 | 0.77 | 0.667
24 | IRNRDYDDIDD [TTYH2_Y424_T419I] | 0.628 | 0.486 | 0.537 | 1.07 | 0.466 | 0.575 | 0.7 | 0.676 | 0.494 | 0.887 | 0.594 | 0.515 | 0.676 | 0.541 | 0.649 | 0.491
25 | EILDVYIFLGP [GAA_Y340_G335E] | 0.965 | 0.793 | 0.46 | 1.4 | 0.912 | 0.889 | 2 | 1.79 | 0.532 | 1.27 | 0.934 | 0.742 | 1.37 | 1.15 | 0.649 | 0.962
26 | LNPDGYEKAFE [CPXM2_Y427_YF] | 0.868 | 0.77 | 3.95 | 1.15 | 0.667 | 0.988 | 0.769 | 0.704 | 0.557 | 1.49 | 0.576 | 0.586 | 0.995 | 0.483 | 1.05 | 0.738
27 | RSAGKYDVYLI [MECP2_Y120] | 0.651 | 0.539 | 0.579 | 0.885 | 0.525 | 0.77 | 0.433 | 0.717 | 0.555 | 1.06 | 1.31 | 0.878 | 0.987 | 0.412 | 0.587 | 1.8
28 | EDSEFYRAFEE [CASQ2_Y179_K180R_YF] | 0.963 | 0.682 | 0.751 | 1.15 | 0.582 | 0.525 | 0.473 | 0.848 | 0.489 | 1.07 | 0.538 | 0.513 | 1.02 | 0.449 | 0.771 | 0.494
29 | LLINKYGLSDH [SCP2_Y151_A155D] | 0.939 | 1.11 | 0.44 | 1.08 | 0.646 | 0.62 | 0.546 | 0.849 | 0.709 | 1.45 | 0.678 | 0.826 | 1.19 | 0.645 | 0.794 | 0.712
